± gives the standard deviation.
Test: protein stability index of a GFP-peptide fusion (GPS, HEK-293T) (PSI 1-6); higher = more stable
Details: c terminus: a fixed tail appended
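Also: 24-mer peptide tiles fused after GFP, lentivirally expressed, FACS-sorted into six equal bins by GFP/DsRed ratio, decoded by Illumina sequencing, PSI is the read-weighted mean bin number.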

Row | Sequence | protein stability index (treatment: DMSO) | protein stability index (treatment: MLN4924 1 uM, 8 h)
1 | SPKGTLPPAALESSDSANTTIEDE [CAMK2B] | 5.64 ± 0.16 | 5.54 ± 0.29
2 | LDMEKRRCRQSLEDSESLRIKEVE [LRRC45] | 4.79 ± 0.2 | 4.67 ± 0.1
3 | HQCHKVIRGRYLVALGHAYHPEEF [PDLIM7] | 2.17 ± 0.29 | 2.2 ± 0.62
4 | KVVSRAENLSVPVIGALLRFNQAI [LPCAT4] | 2.15 ± 0.54 | 2.18 ± 0.19
5 | HVTVENVQELLPAACLLQLKGVKQ [KLHL12] | 2.96 ± 0.33 | 3.15 ± 0.11
6 | VWNRKLDLLCKTSHLSDTGISALV [WDR41] | 2.26 ± 0.27 | 2.2 ± 0.34
7 | TDGRSPRRSRDPGYDHLWDETLSS [PLEKHN1] | 4.33 ± 0.24 | 4.45 ± 0.23
8 | ASKDPREVREARDHKEPKEEINKN [EHMT1] | 5.5 ± 0.2 | 5.66 ± 0.29
9 | PKYQLFVPQLVTGRCATRAFHRKS [RNF180] | 2.14 ± 0.34 | 2.21 ± 0.28
10 | CCPTSREAAVEALELLGATYVDKK [FEM1A] | 4.28 ± 0.06 | 4.3 ± 0.049
11 | DRPRCCLRGKECCINRFQQVESRW [BTBD1] | 2.89 ± 0.32 | 3.06 ± 0.38
12 | KSHFQNSREWSGKEKWWDGQRDRK [PBXIP1] | 3.67 ± 0.26 | 3.98 ± 0.31
13 | PGSASLAQSRLEDPGQDLVPKQAI [DLX1] | 4.83 ± 0.48 | 5 ± 0.34
14 | EVLLASLANPVLESTPVGTVVGLF [PCDHGC5] | 2.53 ± 0.51 | 2.33 ± 0.43
15 | AAFCPQLDDSTVARELAITDSEHS [RETREG3] | 5.26 ± 0.16 | 5.14 ± 0.16
16 | ASNRIIGAKDHASIQMNVAEVSWE [RPS21] | 3.63 ± 0.44 | 3.63 ± 1.4
17 | AWPFYKPVDAEALELHDYHDIIKH [BRD3] | 3.04 ± 0.17 | 3.24 ± 0.35
18 | QWGAEPEGSCYQTFRQYCGAACTC [RNF208] | 3 ± 0.47 | 3.06 ± 0.34
19 | MNNAVRNLQELLELDSSSSLCVLV [CEP70] | 2.36 ± 0.29 | 2.32 ± 0.19
20 | AAESPDPPQSPQGASSLPTTMNYP [MAGEA3] | 5.23 ± 0.13 | 5.3 ± 0.1
21 | TVYKARDPHSGHFVALKSVRVPNG [CDK4] | 2.31 ± 0.48 | 2.68 ± 0.49
22 | LMADLVADISEAEQRTIQAQKESL [APBB1IP] | 3.5 ± 0.56 | 3.6 ± 0.45
23 | ETDVWFSKQRKDFEGMAFLETEQG [GMCL1] | 4.12 ± 0.62 | 4.45 ± 0.16

Row | Sequence | protein stability index (treatment: DMSO) | protein stability index (treatment: MLN4924 1 uM, 8 h)
24 | TALLGGPRRCHSAPPQGSCGDELP [PLEKHN1] | 4.1 ± 0.3 | 4.45 ± 0.47
25 | RIHSGEKPYECNECGKAFSQSSYL [ZNF232] | 2.85 ± 0.068 | 3.1 ± 0.35
26 | SSRDKLTEMAASSQGNFEGNFESL [FUNDC2] | 4.88 ± 0.28 | 5.03 ± 0.42
27 | MEAADASRSNGSSPEARDARSPSG [TRIM29] | 5.29 ± 0.18 | 5.5 ± 0.091
28 | FPAVTVEVKSSIAGSSTWERYFIP [SLC29A1] | 2.61 ± 0.88 | 2.4 ± 0.28
29 | LMAGCIQEARERWNFDFVTETPLE [CDKN1A] | 2.84 ± 0.67 | 2.92 ± 0.33
30 | RKDPYGKPVDMWACGVILYILLVG [CAMK2D] | 2.53 ± 0.12 | 3.04 ± 1.1
31 | FETQMKTLAQFPETLLGDPEKRTQ [KCNA4] | 4.79 ± 0.16 | 4.84 ± 0.21
32 | NFSNYYVAHPPVTYSQPYPTWLPC [TENT5C] | 2.46 ± 0.5 | 2.17 ± 0.098
33 | YRTVVRPTYKVMYKIVTAREWRCC [EMID1] | 2.71 ± 0.79 | 2.38 ± 0.44
34 | KLDTKYPYVCHAELNAIMNKNSTD [DCTD] | 3.52 ± 0.18 | 3.42 ± 0.11
35 | KTIEDLRNKIIAATIENAQPILQI [KRT16] | 2.36 ± 0.25 | 2.33 ± 0.1
36 | AQLRDAVQSLQLSPRTRGSWSQPQ [RASAL3] | 3.65 ± 0.15 | 3.6 ± 0.35
37 | SPRSTSVTTTSSASVTTTSNASGR [KRT13] | 5.31 ± 0.2 | 5.32 ± 0.12
38 | LSNLVGKPSENHPLHNSGLLSLDP [MED27] | 3.87 ± 0.28 | 4.13 ± 0.26
39 | LLRTFDAGEFTGWEKVGSGGFGQV [RIPK4] | 2.43 ± 0.56 | 2.53 ± 0.094
40 | TDYINASFMDGYKQKNAYIGTQGP [PTPN9] | 2.94 ± 0.24 | 3.21 ± 0.21
41 | CHEDVEALAAIYEEKEAWYREESD [DAPK3] | 5.1 ± 0.22 | 5.12 ± 0.62
42 | IPPKEFHFRHPKRSVSLSMRKSGA [BNIP3L] | 3.37 ± 0.34 | 3.77 ± 0.34
43 | SYPVMGFEFQVRVCDSCYDSIKDE [WDFY1] | 2.76 ± 0.18 | 3.06 ± 0.39
44 | RQDSPSPDFYKQSSPNLQVSSDGT [PCDHGC5] | 4.86 ± 0.34 | 4.88 ± 0.18
45 | VWDLNMEARPIETYQVHDYLRSKL [PPP2R2C] | 2.42 ± 0.43 | 2.55 ± 0.095
46 | MSEADGLRQRRPLRPQVVTDDDGQ [APMAP] | 5.36 ± 0.28 | 5.37 ± 0.33

Row | Sequence | protein stability index (treatment: DMSO) | protein stability index (treatment: MLN4924 1 uM, 8 h)
47 | RQDAKYLNMRSTYAKLAAVAVFFI [SEC22B] | 2.35 ± 0.4 | 2.15 ± 0.25
48 | RTVQSLEIDLDSMRNLKASLENSL [KRT18] | 3.14 ± 0.45 | 3.25 ± 0.27
49 | SFWNDCISSGLRGCMLIELALRGR [GOLPH3] | 2.71 ± 0.35 | 2.66 ± 0.75
50 | MSCRDRTQEFLSACKSLQTRQNGI [STX5] | 3.1 ± 0.21 | 3.1 ± 0.36
51 | TDSDDDFDMSRYSSSGYSSAEINQ [FAM219A] | 5.04 ± 0.21 | 5.22 ± 0.37
52 | HLTKKDLRVHLKMVDSFHRTSLQY [PPFIA4] | 2.24 ± 0.25 | 2.11 ± 0.41
53 | QKVATLEKRNRQLRERVKKVKRSL [CCDC3] | 4.08 ± 0.2 | 4.89 ± 0.11
54 | LEFDLLIFSFGQLPLALVTWVPMF [SOAT2] | 3.17 ± 0.49 | 3.02 ± 0.33
55 | VIEAIAQITVKALPKPPGTPVVTE [PTPRD] | 2.3 ± 0.4 | 2.16 ± 0.27
56 | PRQADHDDHECCERVVINISGLRF [KCNA1] | 3.1 ± 0.086 | 3.33 ± 0.27
57 | ERYMCSRFFIDFPHIEEQQKKIES [TENT5D] | 3.21 ± 0.3 | 3.23 ± 0.16
58 | VEVLGPYEPLLSRVQAALVWERPA [RETREG3] | 2.37 ± 0.39 | 2.48 ± 0.24
59 | ATPEQGLSAFYLSYFDMLYPEDSS [SPDEF] | 2.75 ± 0.48 | 2.8 ± 0.41
60 | DSEEPVSTHQEAENEKDRADQTVL [CHGB] | 5.29 ± 0.56 | 5.65 ± 0.27
61 | YDILPLSPVSRNRLAQVKRKILVL [CTDNEP1] | 2.11 ± 0.36 | 2.35 ± 0.22
62 | NITDETPDNCEMFLNFNGMKLFLD [ZER1] | 3.62 ± 0.18 | 3.65 ± 0.46
63 | DDVISRIDRMFPEMSIHLSRPNGT [MED27] | 3.25 ± 0.24 | 3.36 ± 0.25
64 | GFFDVLGNDRRREWAALGNMSKED [ACBD3] | 3.85 ± 0.44 | 4.551 ± 0.018
65 | DNLKFSQEYESIDPGQQFTWEHSN [PTPRD] | 4.57 ± 0.44 | 4.57 ± 0.11
66 | QKRQQLSEDTLTIHGLPTEGYQAL [C22orf31] | 3.91 ± 0.12 | 3.92 ± 0.096
67 | KVEEEIVTLRQVLAAKERHCGELK [TPD52L2] | 3.95 ± 0.3 | 4.21 ± 0.14
68 | PFHEMFVSRGGHGQQDLFRVLKAY [TBC1D10A] | 2.25 ± 0.18 | 2.42 ± 0.085
69 | SPNLNVVDGRLTYPTCGIGYPVSS [SASS6] | 3.06 ± 0.44 | 3.14 ± 0.4

Row | Sequence | protein stability index (treatment: DMSO) | protein stability index (treatment: MLN4924 1 uM, 8 h)
70 | APKGKGRKPAAGAQSAGTQQVAAV [BRD3] | 4.98 ± 0.33 | 5.04 ± 0.24
71 | WLRVLNPDLVKGPWTKEEDQKVIE [MYBL2] | 2.61 ± 0.36 | 2.92 ± 0.18
72 | GHSQEKTHSREKSSQESGEEAGSQ [CHGB] | 5.52 ± 0.56 | 5.45 ± 0.33
73 | VLGIPLTLVMFQSLGERMNTFVRY [KCNK9] | 3.24 ± 0.65 | 2.83 ± 0.48
74 | AKQRAKEAQERELRKREKAEEKER [LRRC59] | 5.45 ± 0.14 | 5.52 ± 0.36
75 | AITTDCLQILAYGNQESKLIILAS [CTNNB1] | 2.85 ± 0.64 | 2.81 ± 0.84
76 | PAQRITLAEALLHPFFAGLTPEER [CLK3] | 3 ± 0.28 | 3.13 ± 0.27
77 | DSLWHRSDSAPRNKISRFQAPISA [MFF] | 3.43 ± 0.45 | 3.41 ± 0.19
78 | MMDSRTSQQLQLIDEQDSYIQSRA [STX5] | 4.77 ± 0.15 | 4.74 ± 0.076
79 | REEEKTFWKKYRTFWKEDKAFWKE [CCDC70] | 2.57 ± 0.2 | 2.75 ± 0.22
80 | IFSIVFVFFVCFVPYHIARIPYTK [P2RY14] | 3.1 ± 0.21 | 3 ± 0.49
81 | SILNSCEDPVPGMLFFLPPGQHLS [FBXO34] | 2.46 ± 0.2 | 2.41 ± 0.22
82 | FFTVEFGLCKQDGQLRVFGAGLLS [TPH1] | 2.73 ± 0.57 | 3.09 ± 1.2
83 | IRAAKGLDQALKEGGKLPPPPPPS [ZC2HC1A] | 4.35 ± 0.24 | 4.48 ± 0.4
84 | ELNKKMTNIRLPNVPSSSLPAQPN [CHMP4C] | 3.66 ± 0.4 | 3.63 ± 0.18
85 | RLQEVRESIRRAQVSQVKGAARLA [FCHSD1] | 3.17 ± 0.45 | 3.3 ± 0.28
86 | MKKGGIFSAEFLKVFIPSLFLSHV [BNIP3L] | 3 ± 1.1 | 2.51 ± 0.56
87 | LRLCRLWPRNPPSRLLGAAAGQRS [DNAJC4] | 2.75 ± 0.54 | 2.7 ± 0.39
88 | LSMVSECLFSLINGDDMFVTFAAM [MCOLN1] | 2.35 ± 0.43 | 2.31 ± 0.3
89 | VFYLWSAIEIFRYSFYMLTCIDMD [HACD3] | 3.13 ± 0.15 | 3.5 ± 0.47

— the supplement of paper PMC10567573
